These results are taken from patent publication US20220348663A1 (Y BIOLOGICS, published 2022).

As usually defined, the Kd is the equilibrium constant for the complex coming apart. A low value points to higher affinity.

The target of experiment [1] is T1, human B7-H3 antigen (Octet) (human, UniProt Q5ZPR3 29-466, limits assumed).
T1 construct: Soluble antigen in the BLI assay
T1 sequence: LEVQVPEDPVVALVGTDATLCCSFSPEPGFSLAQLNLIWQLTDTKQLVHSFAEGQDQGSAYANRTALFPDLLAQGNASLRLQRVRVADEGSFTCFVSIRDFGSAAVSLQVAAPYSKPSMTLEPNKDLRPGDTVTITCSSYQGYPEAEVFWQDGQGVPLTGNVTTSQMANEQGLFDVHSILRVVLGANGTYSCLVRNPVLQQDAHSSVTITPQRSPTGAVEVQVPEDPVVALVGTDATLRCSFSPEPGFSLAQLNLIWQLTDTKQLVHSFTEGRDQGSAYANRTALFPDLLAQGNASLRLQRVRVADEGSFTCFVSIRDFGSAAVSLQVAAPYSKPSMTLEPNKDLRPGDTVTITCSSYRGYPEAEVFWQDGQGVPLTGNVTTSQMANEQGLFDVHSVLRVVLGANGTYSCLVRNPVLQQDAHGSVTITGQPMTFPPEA
Put plainly: BLI (Octet QK), antibody captured on AHC biosensor, B7-H3 antigen 30-0.24 nM, 1:1 global fit. Background: In BLI a coated tip is dipped into the sample, and binding shifts an interference pattern.

Experiment [2] concerns the target T2, rat B7-H3 (#80380-R08H, Sino) (rat, UniProt Q7TPB4 29-244).
T2 construct: Bought protein; also called rat B7-H3 antigen
T2 sequence (looked up): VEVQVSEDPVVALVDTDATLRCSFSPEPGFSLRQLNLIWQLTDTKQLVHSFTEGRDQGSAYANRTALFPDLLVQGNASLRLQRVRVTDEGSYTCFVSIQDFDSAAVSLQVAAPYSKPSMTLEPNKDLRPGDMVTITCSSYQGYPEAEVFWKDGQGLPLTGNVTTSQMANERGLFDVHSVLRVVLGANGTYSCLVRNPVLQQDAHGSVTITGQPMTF
Put plainly: ELISA on coated Rat B7H3, OD450nm. In general terms: An ELISA detects its analyte on a solid surface through an enzyme-linked reagent.

Experiment [3] concerns the target T3, Mouse B7-H3 (#50973-M08H, Sino) (mouse, UniProt Q8VE98 29-244).
T3 construct: Bought protein; also called mouse B7-H3 antigen
T3 sequence (looked up): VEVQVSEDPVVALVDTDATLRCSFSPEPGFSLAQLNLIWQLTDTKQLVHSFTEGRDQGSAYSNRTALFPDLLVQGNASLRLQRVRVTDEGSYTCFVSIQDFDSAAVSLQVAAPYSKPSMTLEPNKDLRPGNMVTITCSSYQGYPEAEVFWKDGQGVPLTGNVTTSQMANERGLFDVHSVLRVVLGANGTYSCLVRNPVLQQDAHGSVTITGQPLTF
Put plainly: ELISA on coated Mouse B7H3, OD450nm.

B1: CD276-040F10 (antibody, V domains shown)
VH: QVQLVESGAEVKKPGASVKLSCKASGYTFSSYWMHWVRQAPGQRLEWMGEINPGNGHTNYNEKFKSRVTITVDKSASTAYMELSSLRSEDTAVYYCVADPRRPKVPTALFVYWGQGTLVTVSS
VL: DIQMTQSPSSVSASVGDRVTISCRASQGIGTWLAWYQQKPGKAPRLLIYAASSLDSGVPSRFSASGSGTDFTLTISSLQPEDFATYYCQQAINFPITFGQGTRLEIK
notes: Converted from scFv to IgG form
As for B1, in experiment [1], the Kd stood at 0.06 nM.

B2: CD276-039C05 (antibody, V domains shown)
VH: QVQLVESGAEVKKPGSSVKVSCKASGGTFSSYAISWVRQAPGQGLEWMGRIIPILGIANYAQKFQGRVTITADKSTSTAYMELSSLRSEDTAVYYCANGGDSSSWYTFDYWGQGTLITVSS
VL: DIQMTQSPSTLSASVGDKLTLTCRASQSISRWLAWYQQKPGKAPKLLIYKASYLQTGVPSRFSGSGTGTEFTLTISSLQPDDFATYYCQQYNTFPLTFAGGTKVEIK
notes: Converted from scFv to IgG form; Parent of the _LS_ light-chain variants
B2: the binding result in experiment [2] and in experiment [3] was “binds” each time.
